# Entries after “also recorded” stand apart in the source; their conditions may differ. Non-standard residues stand in square brackets, D forms with d. Residues, ends and D or L forms follow the SMILES beside them. No end group written: not given here. *: point of attachment. Sta = CC(C)C[C@H](N)[C@@H](O)CC(=O)O; Mca = COc1ccc2c(CC(=O)*)cc(=O)oc2c1; DNP = 2,4-Dinitrophenyl, quencher; Isovaleryl = CC(C)CC(=O)*
# How the values were obtained:
# [1] = biological target: T1, OMA1 (Homo sapiens, UniProt Q96E52); conditions: prior studies (refs 12, 24); cited from earlier work
# T1 sequence (Q96E52 144-524): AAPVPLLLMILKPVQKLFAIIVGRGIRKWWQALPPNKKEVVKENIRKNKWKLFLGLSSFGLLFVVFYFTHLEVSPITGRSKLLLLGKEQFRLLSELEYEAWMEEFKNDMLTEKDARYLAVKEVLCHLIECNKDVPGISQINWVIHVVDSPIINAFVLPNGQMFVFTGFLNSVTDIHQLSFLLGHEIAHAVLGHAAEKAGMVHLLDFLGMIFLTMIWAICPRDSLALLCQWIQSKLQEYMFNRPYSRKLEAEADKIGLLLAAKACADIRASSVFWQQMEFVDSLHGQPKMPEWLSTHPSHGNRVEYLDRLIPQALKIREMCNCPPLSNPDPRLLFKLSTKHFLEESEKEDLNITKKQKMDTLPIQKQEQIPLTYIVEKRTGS
# [2] = biological target: T2, OMA1 (Rattus norvegicus, UniProt D3ZS74); test: OMA1 activity assay (OPA1 FRET substrate) in NRK cell lysates; format: biochemical; conditions: for decrease of OMA1 activity compared to the standard substrate sequence: modified 8-mer FRET substrate vs AFRATDHG
# T2 construct: Renal cell lysates from normal rat kidney (NRK) epithelial cell line were prepared; endogenous in cells; host or cells: NRK-52E (ATCC CRL-1571), RIPA lysate, 5 µg protein per well
# T2 sequence (D3ZS74 123-504): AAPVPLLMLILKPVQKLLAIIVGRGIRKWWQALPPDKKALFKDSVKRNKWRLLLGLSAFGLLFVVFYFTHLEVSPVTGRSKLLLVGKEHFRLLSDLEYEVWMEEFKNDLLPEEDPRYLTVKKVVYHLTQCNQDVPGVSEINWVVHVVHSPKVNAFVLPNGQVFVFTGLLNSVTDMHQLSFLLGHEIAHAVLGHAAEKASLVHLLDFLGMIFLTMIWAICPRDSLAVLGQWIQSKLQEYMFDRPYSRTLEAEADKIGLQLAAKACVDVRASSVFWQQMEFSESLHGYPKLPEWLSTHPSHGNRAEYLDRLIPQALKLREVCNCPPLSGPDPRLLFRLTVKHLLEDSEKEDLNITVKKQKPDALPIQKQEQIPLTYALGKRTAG
# Description: Normal rat kidney cells (NRK-52E; ATCC No. CRL-1571) were maintained in a humidified incubator with 5% CO2, 95% air at 37° C. in DMEM containing 5% fetal bovine serum. Renal cell lysates from normal rat kidney (NRK) epithelial cell line were prepared by using radioimmunoprecipitation assay (RIPA) buffer (Pierce) with 1 mM PMSF (Sigma), 1.2 mM Na3VO4 (Sigma), 2.5 mM NaF (Sigma), 1 mM DTT (Sigma), 1× of Halt Protease & Phosphatase inhibitor cocktail (Thermo Scientific), and 5 mM EDTA (Thermo Scientific). Protein concentrations were determined by Coomassie Plus Protein Assay Reagent (Pierce).
# Our OMA1 activity assay utilizes an 8-mer peptide derived from the cleavage sequence of OPA1, which is reported to be specific of OMA1 which is referred as the OPA1 FRET substrate. The peptide contains a fluorogenic MCA moiety on the N-terminus and a DNP quencher moiety on the C-terminus (FIG. 1), which was custom-synthesized by LifeTein LLC and handled accordingly to the manufacturer's instructions. Using a final 100 μl reaction volume and black, opaque 96 well plates (Costar), the reagents were added in the following order: 1) OMA1 activity assay buffer (50 mM of Tris/HCl, pH=7.5, 40 mM of KCl), 2) 5 μg of protein sample, 3)+/−200 μM of the zinc chelator N,N,N′,N′-Tetrakis (2-pyridylmethyl)ethylenediamine (TPEN) resuspended in 100% ethanol and lastly, 4) the OPA1 FRET substrate (5 μM final concentration; dissolved in DMSO). Fluorescence was recorded (excitation/emission of 320/405 nm) once per minute for 30 min at 37° C. using a fluorescent plate reader (SpectraMax M2e, Molecular Devices equipped with SoftMax Pro v5 software).
# For the statistical analysis, the average fluorescence of the OPA1 FRET substrate alone was measured (<150 relative FLS units) and that value was subtracted from the sample values. The values were reported as a difference of TPEN inhibition [(sample X)−(sample X+TPEN)] where the slopes between 0-30 min were calculated (by linear regression) and each treatment were compared to appropriate controls. Thus, OMA1 activity was calculated by […] to enhance specificity.
# [3] = biological target: T2, OMA1; test: as above; format: biochemical; conditions: untreated NRK cell lysates (5 μg), substrate 1-30 μM, Michaelis-Menten
# [4] = biological target: T2, OMA1; test: OMA1 activity assay in rat renal mitochondrial lysates after cold storage / transplantation; format: biochemical; conditions: cold storage alone or followed by transplant
# Source text: Long-term renal function is compromised in patients receiving deceased donor kidneys which require cold storage exposure prior to transplantation. It is established that extended cold storage plus transplantation of kidneys induces renal mitochondrial dysfunction. To assay OMA1 activity under stress conditions known to induce mitochondrial dysfunction an exemplary reporter molecule of the invention was employed in mitochondrial lysates from control kidneys (CTRL), sham surgery (SH), cold storage alone (CS), or cold storage and transplantation (CS/TX) conditions.
# Our OMA1 activity assay utilizes an 8-mer peptide derived from the cleavage sequence of OPA1, which is reported to be specific of OMA1 which is referred as the OPA1 FRET substrate. The peptide contains a fluorogenic MCA moiety on the N-terminus and a DNP quencher moiety on the C-terminus (FIG. 1), which was custom-synthesized by LifeTein LLC and handled accordingly to the manufacturer's instructions. […] Fluorescence was recorded (excitation/emission of 320/405 nm) once per minute for 30 min at 37° C. using a fluorescent plate reader (SpectraMax M2e, Molecular Devices equipped with SoftMax Pro v5 software).
# [5] = tested on: OMA1; test: Live-cell OMA1 activity assay with mitochondrial targeted FRET peptide; format: cell-based, rat; conditions: NRK-52E cells, FRET peptide 10 μM, 4 hr, antimycin A 50 nM, 30 min, preliminary
# Source text: Live-Cell OMA1 activity assay: To deliver the FRET OMA1 peptide to mitochondria in living cells, we utilized a modified short Szeto-Schiller (SS) peptide sequence1 attached to the amino terminus of the 8 amino acid FRET sequence (custom synthesized by LifeTein) (FIG. 5A). […] Small molecule/peptide library subsets or novel peptides will be screened for inhibitory activity using this live-cell OMA1 assay.
# Live-cell OMA1 activity assay preliminary results: To deliver the FRET peptide to mitochondria in living cells, we have used a modified short Szeto-Schiller (SS) mitochondrial targeting peptide sequence1 (d-arginine, dimethyl tyrosine, ornithine, tryptophan) attached to the amino terminus of the eight amino acid FRET sequence (FIG. 5A). Normal rat kidney (NRK-52E; ATCC No. CRL-1571) cells were plated on black 96-well cell culture plates (10,000 cells/well). The next day, the cell permeable peptide was added to cells (10 μM; 4 hr; 37° C.) followed by exposure to ATP depletion/antimycin A (50 nM; 30 min) and OMA1 activity measured (ex/em 320/405) using a plate reader. […] Future studies will optimize the mitochondrial targeting sequence so that the highest efficiency of mitochondrial localaization without altering mitochondrial oxidant levels will be achieved, which we predict will yield the highest sensitivity for the live-cell OMA1 activity assay.
# [6] = Table 2, slope over 30 min, % comparison to AFRATDHG, 2-3 experiments/substrate
# [7] = Table 1, average slope over 30 min compared to AFRATDHG substrate, n = 3
compound,measurement,setting,value
pefabloc/TPCK,prevention of OMA1-dependent OPA1 cleavage,[1],do not prevent OMA1-dependent OPA1 cleavage
AFKATDHG (Mca-AFKATDHG; not fully specified (C-terminus); also: FRET fluorophore and quencher) [FRET substrate with Arg changed to Lys],OMA1 Activity,[2]; [6],61%
same,decrease of OMA1 activity compared to the standard substrate sequence,[2],~40%
"AARAAAAA (Mca-AARAAAAA; not fully specified (C-terminus); also: FRET fluorophore and quencher, sites not given here) [FRET substrate with RA motif flanked by alanine residues]",OMA1 Activity,[2]; [6],35%
same,decrease of OMA1 activity compared to the standard substrate sequence,[2],65%
"AFRATDHG (Mca-AFRATDHG-{DNP}) [MCA-AFRATDHG-DNP, eight amino acid OPA1 S1-site peptide with MCA fluorophore on the N-terminus and DNP quencher on the C-terminus]",OMA1 Activity,[2]; [7],100%
same,OMA1 Activity,[2]; [6],100%
same,Vmax for cleavage of the OPA1 FRET substrate,[3],34.6 FLS/min
same,Km,[3]; read-out: Km for cleavage of the OPA1 FRET substrate,7.1 µM
CCOC(=O)[C@H]1O[C@@H]1C(=O)N[C@@H](CC(C)C)C(=O)NCCC(C)C [E64D],prevention of OMA1-dependent OPA1 cleavage,[1],do not prevent OMA1-dependent OPA1 cleavage
"ATDHGSES (Mca-ATDHGSES; not fully specified (C-terminus); also: FRET fluorophore and quencher) [eight amino acid FRET peptide from OPA1 downstream of the cleavage site, no RA motif]",fluorescence of FRET peptide without R-A sequence,[2]; FRET peptide downstream of cleavage site,abolished fluorescence
same,OMA1 Activity,[2]; [7],2.71%
same,OMA1 Activity,[2]; [6],2.71%
"c1ccc(CN(CCN(Cc2ccccn2)Cc2ccccn2)Cc2ccccn2)nc1 [TPEN, N,N,N′,N′-Tetrakis (2-pyridylmethyl)ethylenediamine]","effect on OMA1 activity (slope, FLS/min)",[2]; NRK cell lysates with TPEN (200 μM in method) vs untreated lysates,reduced OMA1 activity; also recorded: dramatically decreased fluorescence
same,effect on reporter fluorescence (FLS) increase,[4],effectively inhibits FLS increase; also recorded: effectively inhibits the reporter molecule activation
CCCCC[C@H](CC(=O)NO)C(=O)N[C@H](C(=O)N1CCC[C@H]1CO)C(C)C [actinonin],"effect on OMA1 activity (slope, FLS/min)","[2]; NRK cell lysates, 0.5-1 μM, vs untreated lysates","neither the broad-spectrum MMP inhibitor, batimastat (0.5-1 μM), or the meprin A inhibitor, actinonin (0.5-1 μM), altered OMA1 activity"
same,"effect on OMA1 activity (slope, FLS/min)","[2]; NRK cell lysates, 0.5-1 μM, vs untreated lysates, listed as Actinonin",Only TPEN reduced OMA1 activity
CC(C)CC(=O)N[C@H](C(=O)N[C@H](C(=O)N[C@@H](CC(C)C)[C@@H](O)CC(=O)N[C@@H](C)C(=O)N[C@@H](CC(C)C)[C@@H](O)CC(=O)O)C(C)C)C(C)C [pepstatin A] (Isovaleryl-VV[Sta]A[Sta]-OH),prevention of OMA1-dependent OPA1 cleavage,[1],do not prevent OMA1-dependent OPA1 cleavage
antimycin A,OMA1 activity (fluorescence) in live cells,[5],increased OMA1 activity
same,OMA1 activity (fluorescence) in live cells,[5]; listed as AMA,induces OMA1 activity

# — patent publication US10739331B2, “OMA1 activity assay” (BioVentures, LLC, priority 2017, dated 2020)
